Results from IntAct's records for PubMed 9436979.

B1: Mothers against decapentaplegic homolog 6 (Homo sapiens), O43541 (parent)
chain: MFRSKRSGLVRRLWRSRVVPDREEGGSGGGGGGDEDGSLGSRAEPAPRAREGGGCGRSEVRPVAPRRPRDAVGQRGAQGAGRRRRAGGPPRPMSEPGAGAGSSLLDVAEPGGPGWLPESDCETVTCCLFSERDAAGAPRDASDPLAGAALEPAGGGRSREARSRLLLLEQELKTVTYSLLKRLKERSLDTLLEAVESRGGVPGGCVLVPRADLRLGGQPAPPQLLLGRLFRWPDLQHAVELKPLCGCHSFAAAADGPTVCCNPYHFSRLCGPESPPPPYSRLSPRDEYKPLDLSDSTLSYTETEATNSLITAPGEFSDASMSPDATKPSHWCSVAYWEHRTRVGRLYAVYDQAVSIFYDLPQGSGFCLGQLNLEQRSESVRRTRSKIGFGILLSKEPDGVWAYNRGEHPIFVNSPTLDAPGGRALVVRKVPPGYSIKVFDFERSGLQHAPEPDAADGPYDPNSVRISFAKGWGPCYSRQFITSCPCWLEILLNNPR

Variants of: B1
Details: with smad1_human SMAD1, Q15797
Sequence of smad1_human SMAD1, Q15797 (Q15797 whole entry): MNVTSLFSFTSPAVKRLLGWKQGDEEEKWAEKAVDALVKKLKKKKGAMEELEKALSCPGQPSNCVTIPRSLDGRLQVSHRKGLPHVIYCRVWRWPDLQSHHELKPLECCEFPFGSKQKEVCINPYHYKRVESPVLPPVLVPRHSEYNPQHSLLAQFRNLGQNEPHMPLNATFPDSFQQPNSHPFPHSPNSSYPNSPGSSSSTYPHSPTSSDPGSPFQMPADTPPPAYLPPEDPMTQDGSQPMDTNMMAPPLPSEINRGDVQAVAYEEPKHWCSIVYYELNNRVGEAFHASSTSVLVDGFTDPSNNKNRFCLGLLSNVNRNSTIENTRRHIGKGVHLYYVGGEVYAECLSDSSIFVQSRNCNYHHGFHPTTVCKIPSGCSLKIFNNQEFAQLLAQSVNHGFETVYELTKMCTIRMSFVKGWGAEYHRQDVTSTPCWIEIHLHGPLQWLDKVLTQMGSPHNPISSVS

| Variant | effect of a mutation on the interaction |
| --- | --- |
| MFRSKRSGLVRRLWRSRVVPDREEGGSGGGGGGDEDGSLGSRAEPAPRAREGGGCGRSEVRPVAPRRPRDAVGQRGAQGAGRRRRAGGPPRPMSEPGAGAGSSLLDVAEPGGPGWLPESDCETVTCCLFSERDAAGAPRDASDPLAGAALEPAGGGRSREARSRLLLLEQELKTVTYSLLKRLKERSLDTLLEAVESRGGVPGGCVLVPRADLRLGGQPAPPQLLLGRLFRWPDLQHAVELKPLCGCHSFAAAADGPTVCCNPYHFSRLCGPESPPPPYSRLSPRDEYKPLDLSDSTLSYTETEATNSLITAPGEFSDASMSPDATKPSHWCSVAYWEHRTRVGRLYAVYDQAVSIFYDLPQGSGFCLGQLNLEQRSESVRRTRSKIGFGILLSKEPDGVWAYNRGEHPIFVNSPTLDAPGGRALVVRKVPPGYSIKVFDFERSGLQHAPEPDAADGPYDPNSVRISFAKSWGPCYSRQFITSCPCWLEILLNNPR [G471S] | disrupting interaction |
